Experimental data from patent publication US20260167713A1 (UCB, published 2026).
Positions count from the first letter of the chain named.

T1: recombinant full-length human beta-catenin (human, UniProt P35222 2-781, biotinylated in the ELISA and SPR assays (sites not given); not biotinylated on the Western blots)
T1 construct: Tags are not described; also called β-catenin; biotinylated beta-catenin
T1 sequence: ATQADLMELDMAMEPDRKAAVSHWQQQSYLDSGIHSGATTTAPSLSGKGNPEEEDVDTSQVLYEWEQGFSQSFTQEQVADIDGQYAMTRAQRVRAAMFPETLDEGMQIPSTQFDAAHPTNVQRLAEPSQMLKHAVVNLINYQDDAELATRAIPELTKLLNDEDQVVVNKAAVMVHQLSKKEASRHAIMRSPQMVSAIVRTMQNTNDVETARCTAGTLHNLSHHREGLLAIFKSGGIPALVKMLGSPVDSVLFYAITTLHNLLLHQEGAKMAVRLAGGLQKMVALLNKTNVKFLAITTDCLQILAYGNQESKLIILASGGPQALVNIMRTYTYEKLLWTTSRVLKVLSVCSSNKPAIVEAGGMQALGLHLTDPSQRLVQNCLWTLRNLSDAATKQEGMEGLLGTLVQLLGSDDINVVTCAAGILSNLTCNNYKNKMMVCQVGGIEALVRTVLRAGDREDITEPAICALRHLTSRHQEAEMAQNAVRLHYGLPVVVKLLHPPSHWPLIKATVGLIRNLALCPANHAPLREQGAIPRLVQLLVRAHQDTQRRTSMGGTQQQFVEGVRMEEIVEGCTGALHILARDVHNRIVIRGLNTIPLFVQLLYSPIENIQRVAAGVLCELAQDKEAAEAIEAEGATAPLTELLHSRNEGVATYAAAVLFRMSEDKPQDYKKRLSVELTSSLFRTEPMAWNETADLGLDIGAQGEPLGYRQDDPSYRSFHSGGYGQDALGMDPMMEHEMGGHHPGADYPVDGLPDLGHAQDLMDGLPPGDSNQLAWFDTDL

B1: IBV1.CDRAAA-scFc (Fc fusion, not shown: a dimerising Fc or GST; small tags and cut ends)
VHH: QVQLVQSGGGLVQPGGSLRLSCAASGSISSNNVMGWYRQGPGKQREFVASITDSDLANYAASVKGRFTISRDNAKNTVNLQMNSLRPEDTDVYYCRLTMMTAAATISWGQGTQVTVSS
notes: CDR3 mutant control of V1 in the VHH-scFc format; also called VH-V1.CDRAAA
B2: intrabody O (VHH expressed intracellularly) (VHH, not shown: small tags and cut ends)
VHH: QVQLVQSGGGLVQAGDSLRLACAASEGTFRTNVMGWFRQAPGKEREFVAAISWSGGITHYSNSVKGRFAISRDNAKNTVYLQMNSLKPEDTAVYYCAADPSTTPWNLRVRVNEYEYWGQGTQVTVSS
B3: intrabody V1 (VHH expressed intracellularly) (VHH, not shown: small tags and cut ends)
VHH: B1 VHH with A102Y, A103P, A104P
B4: intrabody V2 (VHH expressed intracellularly) (VHH, not shown: small tags and cut ends)
VHH: B1 VHH with A102Y, A103P, A104P, T105I
B5: intrabody V3 (VHH expressed intracellularly) (VHH, not shown: small tags and cut ends)
VHH: B1 VHH with Q6E, S27T, I51V, D91G, M99I, A102Y, A103P, A104P
B6: intrabody S (VHH expressed intracellularly) (VHH, not shown: small tags and cut ends)
VHH: QVQLVESGGGLVQAGGSLRLSCAASGVSFSRTSLGWFRQAPGKEREFVSVISWIGGTTYYADSLKGRFTISRDNAKSTVYLQMNSLKPEDTALYYCAISNGVLPRTEGAFASWGQGTQVTVSS
B7: IBO-scFc (Fc fusion, not shown: a dimerising Fc or GST; large carriers; small tags and cut ends)
VHH: B2 VHH
notes: Single chain mouse IgG Fc construct; It is placed under this molecule; also called VH-O; biotinylated-'O'
B8: IBV1-scFc (Fc fusion, not shown: a dimerising Fc or GST; large carriers; small tags and cut ends)
VHH: B1 VHH with A102Y, A103P, A104P
notes: Single chain mouse IgG Fc construct, used as transient HEK293 supernatant; also called VH-V1; VHH-scFc of V1
B9: IBV2-scFc (Fc fusion, not shown: a dimerising Fc or GST; large carriers; small tags and cut ends)
VHH: B1 VHH with A102Y, A103P, A104P, T105I
notes: Single chain mouse IgG Fc construct, used as transient HEK293 supernatant; also called VH-V2
B10: IBV3-scFc (Fc fusion, not shown: a dimerising Fc or GST; large carriers; small tags and cut ends)
VHH: B1 VHH with Q6E, S27T, I51V, D91G, M99I, A102Y, A103P, A104P
notes: Single chain mouse IgG Fc construct, used as transient HEK293 supernatant; also called VH-V3
B11: IBS-scFc (Fc fusion, not shown: a dimerising Fc or GST; large carriers; small tags and cut ends)
VHH: B6 VHH
notes: Single chain mouse IgG Fc construct, used as transient HEK293 supernatant; also called VH-S
B12: IBO.CDRAAA (2)-scFc (Fc fusion, not shown: a dimerising Fc or GST; small tags and cut ends)
VHH: B2 VHH with R108A, V109A, R110A
notes: CDR3 mutant of O in the VHH-scFc format; also called VH-O.CDRAAA(2)
B13: IBO.CDRAAA (1)-scFc (Fc fusion, not shown: a dimerising Fc or GST; small tags and cut ends)
VHH: B2 VHH with P104A, W105A, N106A
notes: CDR3 mutant control of O in the VHH-scFc format; also called VH-O.CDRAAA(1)
B14: IBS.CDRAAA-scFc (Fc fusion, not shown: a dimerising Fc or GST; small tags and cut ends)
VHH: B6 VHH with E6Q, R105A, E107A, F110A
notes: CDR3 mutant control of S in the VHH-scFc format; also called VH-S.CDRAAA

biological target: T1, recombinant full-length human …; assay: Western blot of reduced recombinant beta-catenin on PVDF, probed with IBV1.CDRAAA-scFc transient supernatant at 16 nM, detected with anti-mouse Fc HRP
Method: FIG. 5: Reducing anti-beta-catenin Western blots probed by the intrabodies. Gel A:) IBV1-scFc (23 nM), Gel B: IBV2-scFc (110 nM), Gel C: IBV3-scFc (85 nM) and Gel D: IBV1.CDRAAA-scFc (16 nM) transient supernatants. Any binding was detected with t anti-mouse Fc HRP antibody. In each gel, Lane 1) 15 ng beta-catenin, Lane 2) 7.5 ng beta-catenin, Lane 3) 3.75 ng beta-catenin.
The presence of beta-catenin was successfully detected by all three parent VHHs and not by the control mutant IBV1.CDRAAA.

| binding result | Binder |
| --- | --- |
| no binding (tested: 16 nM) | B1 |

biological target: endogenous beta-catenin (HEK293 cells) (human) (UniProt P35222); assay: cell-based or functional assay

| firefly luciferase activity signal, PPSP-stimulated HEK293 TCF/LEF reporter bioassay (% of control VHH signal) | inhibition of beta-catenin co-transcriptional activity, HEK293 bioassay stimulated with LiCl2, against IBO.CDRAAA (1) [%] | inhibition of beta-catenin co-transcriptional activity, HEK293 bioassay stimulated with Wnt3a-conditioned media, against IBO.CDRAAA (1) [%] | percentage inhibition of firefly luciferase production in the bioassay, IBO against IBO.CDRAAA (1) [%] | Binder |
| --- | --- | --- | --- | --- |
| < 25 | 65 | 66 | 83 | B2 |
| < 25 |  |  |  | B3 |
| < 25 |  |  |  | B4 |
| < 25 |  |  |  | B5 |
| < 25 |  |  |  | B6 |

biological target: T1, recombinant full-length human …; assay: SPR (Biacore T100), biotinylated beta-catenin captured on streptavidin, VHH-scFc in solution
Method: SPR-Affinity measurements: Affinity measurements were performed using a Biacore™T100. Streptavidin was immobilised onto the carboxymethylated dextran coated gold surface of a CM5 sensor chip using amine coupling chemistry, as per manufacture's instructions. The concentrations of streptavidin used in flow cells 1˜4 respectively were 0 μg/mL, 5 μg/mL, 15 μg/mL, 45 μg/mL in 10 mM NaOAc pH5. Biotinylated beta-catenin was then captured on flow cells 2-4 whilst flow cell 1 was the control reference cell. Samples of VHH-scFc at 1 in 2, 1 in 5, 1 in 10, 1 in 20 and 1 in 40 dilutions in HBS-EP were passed over all flow cells for 5 minutes at 30 μL/minute. Buffer blanks were run between every sample set and control transfection supernatant samples were included in each run. Between each sample the chip was regenerated by the addition of 30 μL of 2M guanidine hydrochloride followed by 30 μL of 40 mM HCl. Affinity constants were determined by the fitting of resulting data using BiaEvalution software with a Langmuir 1:1 association method, associations were rejected if the Chi2 value was greater than 1; if the residual data points were not randomly distributed or if the residuals were greater than +/−2 RU. The association data were plotted for the most dilute samples which still gave a RU capture response of at least 40RU. A minimum of four different combinations of dilutions and different beta-catenin coated flow cells were used to calculate association ‘on-rate’ (ka) or dissociation data ‘off-rate’ (kd), and used to calculate KD=kd/ka.

| Kd [nM] | koff [s⁻¹] | kon [M⁻¹ s⁻¹] | Binder |
| --- | --- | --- | --- |
| 3.65 | 0.00026 | 71100 | B7 |
| 6.49 | 0.000163 | 25100 | B8 |
| 4.47 | 0.000165 | 36900 | B9 |
| 4.38 | 0.000169 | 38500 | B10 |
| 3.78 | 0.000248 | 65600 | B11 |

biological target: T1, recombinant full-length human …; assay: ELISA on captured biotinylated beta-catenin

| Kd [nM] | Binder |
| --- | --- |
| < 10 | B7 |
| < 10 | B8 |
| < 10 | B9 |
| < 10 | B10 |
| < 10 | B11 |

biological target: T1, recombinant full-length human …; assay: ELISA: biotinylated beta-catenin captured on streptavidin plates, VHH-scFc in half-log dilutions from 32 nM, anti-mouse Fc HRP, delta OD 630/490 nm [lower panel]
Method: FIG. 6: beta-catenin binding ELISA results for parent VHHs and CDR3 mutants. […] The plates were read at 630 and 490 nm and ΔOD recorded. The negative control is a ‘no DNA’ control transfection culture supernatant.
Beta-catenin binding ELISA: ELISA plates were coated with streptavidin ([…]). Biotinylated beta-catenin (1 mg/mL) was added in PBS, for 30 minutes. Blocked samples were added (phage samples or transient VHHscFc samples). After an hour, bound samples were detected using a suitable antibody at 1 in 5,000 dilution in PBS (containing 3% BSA). Detection antibodies were goat anti-M13-HRP (GE Healthcare) or goat anti-mouse Fc HRP (Jackson ImmunoResearch).
The binding of the parent intrabodies and CDR3 mutants to recombinant β-catenin was also tested by ELISA. […] IBV1.CDRAAA and IBS.CDRAAA also appeared to be suitable CDR3 mutant controls for their respective parent except for their lower expression levels within the bioassay. This is not uncommon in conventional antibody expression and single point mutations in antibody CDRs leading to over a 100-fold reduction in expression have been previously reported.

| binding result | Binder |
| --- | --- |
| binds | B12 |
| no binding (tested: 32 nM) | B13 |
| no binding (tested: 32 nM) | B14 |
